Data: US8357523B2, “Beta-glucosidase variant enzymes and related polynucleotides” (Codexis, Inc., priority 2009, dated 2013)
Where a chain is given by its changes, count along the chain named.

B1: 198 (protein)
chain: STAIAQEGAAPAAILHPEKWPRPATQRLIDPAVEKRVDALLKQLSVEEKVGQVIQGDIGTITPEDLRKYPLGSILAGGDSGPNGDDRAPPKEWLDLADAFYRVSLEKRPGHTPIPVLFGIDAVHGHGNIGSATIFPHNIALGMTRDPELLRRIGEVTAEEMAATGIDWTFAPALSVVRDDRWGRTYEGFSEDPEIVASYSAAIVEGVQGKFGPKDFMAPGRIVASAKHFLADGGTDQGRDQGDARISEDELIRIHNAGYPPAIDAGVLTVMASFSSWQGIKHHGHKQLLTDVLKGQMGFNGFIVGDWNAHDQVPGCTKFNCPTSLIAGLDMYMAADSWKQLYENTLAQVKDGTIPMARLDDAVRRILRVKVLAGLFEKPAPKDRPGLPGLETLGSPEHRAVGREAVRKSLVLLKNDKGTLPLSPKARVLVAGDGADNIGKQSGGWTISWQGTGNRNDEFPGATSILGGIRDAVADAGGSVEFDVPGQYKTKPDVAIVVFGEEPYAEFQGDVETLEYQPDQKQDLALLKKLKDQGIPVVAVFLSGRPMWVNPELNASDAFVAAWLPGTEGGGVADVLFTDKAGKVQHDFAGKLSYSWPRTAAQTTVNRGDADYNPLFAYGYGLTYKDKSKVGTLPEESGVPAEARQNAGIYFRAGALRLPGRFL
B2: 199 (protein)
chain: B1 chain with G220V, P485A
B3: 200 (protein)
chain: B1 chain with P213S, P485A
B4: 201 (protein)
chain: B1 chain with P213S, P485A, A539V
B5: 83 (protein)
chain: B1 chain with D79N, M143A, E159V, S198A, P213S, I222A, S225C, P485A, A525T
B6: 202 (protein)
chain: B1 chain with P213S, P485A, G570P
B7: 203 (protein)
chain: B1 chain with P213S
B8: 204 (protein)
chain: B1 chain with Q26R, P213S, P485A, T604P
B9: 205 (protein)
chain: B1 chain with P213S, S479A, P485A
B10: 206 (protein)
chain: B1 chain with P485A
B11: 84 (protein)
chain: B1 chain with D79N, N128K, M143A, E159V, S198A, P213S, I222A, P485A
B12: 207 (protein)
chain: B1 chain with P213S, P485A, T604P
B13: 208 (protein)
chain: B1 chain with G59R, P213S, P485A
B14: 209 (protein)
chain: B1 chain with P213S, M331L
B15: 85 (protein)
chain: B1 chain with D85N, M143A, E159V, S198A, F211Y, P213S, P485A
B16: 86 (protein)
chain: B1 chain with D79N, E159V, P213S, P219M, P485A
B17: 87 (protein)
chain: B1 chain with E159V, F211Y, P213S, P485A
B18: 88 (protein)
chain: B1 chain with M143A, E159V, S198A, P213S, P485A
B19: 89 (protein)
chain: B1 chain with M143A, E159V, P213S, P219V, P485A
B20: 90 (protein)
chain: B1 chain with M143A, E159V, S198A, F211Y, P213S, P485A
B21: 91 (protein)
chain: B1 chain with E159V, S198A, P213S, P485A
B22: 92 (protein)
chain: B1 chain with D79N, E159V, S198A, P213S, P485A
B23: 93 (protein)
chain: B1 chain with D79N, M143A, E159V, S198A, F211Y, P213S, P485A
B24: 95 (protein)
chain: B1 chain with D79N, M143A, E159Q, F211Y, P213S, P485A
B25: 96 (protein)
chain: B1 chain with D79N, S198A, F211Y, P213S, P485A
B26: 97 (protein)
chain: B1 chain with D79N, E159V, S198A, F211Y, P213S, P485A, E642A, A643P
B27: 98 (protein)
chain: B1 chain with T2A, D79N, M143A, E159V, A162T, S198A, A201P, P213S, I222A, P485A
B28: 99 (protein)
chain: B1 chain with D79N, N128K, M143A, E159V, S198A, P213S, I222S, S225C, P485A
B29: 101 (protein)
chain: B1 chain with D79N, M143A, E159V, A162T, S198A, P213S, I222A, S225C, P485A
B30: 102 (protein)
chain: B1 chain with D79N, M143A, E159V, A162T, S198A, P213S, S225C, P485A, A573S
B31: 103 (protein)
chain: STAIAQEGAAPAAILHPEKWPRPATQRLIDPAVEKRVDALLKQLSVEEKVGQVIQGDIGTITPEDLRKYPLGSILAGGNSGPNGDDRAPPKEWLDLADAFYRVSLEKRPGHTPIPVLFGIDAVHGHGNIGSATIFPHNIALGATRDPELLRRIGEVTAVEMAATGIDWTFAPALSVVRDDRWGRTYEGFSEDPEIVAAYSAAIVEGVQGKFGSKDFMAPGRIVASAKHFLADGGTDQGRDQGDARISEDELIRIHNAGYPPAIDAGVLTVMASFSSWQGIKHHGHKQLLTDVLKGQMGFNGFIVGDWNAHDQVPGCTKFNCPTSLIAGLDMYMAADSWKQLYENTLAQVKDGTIPMARLDDAVRRILRVKVLAGLFEKPAPKDRPGLPGLETLGSPEHRAVGREAVRKSLVLLKNDKGTLPLSPKARVLVAGDGADNIGKQSGGWTISWQGTGNRNDEFPGATSILGGIRDAVADAGGSVEFDVAGQYKTKPDVAIVVFGEEPYAEFQGDVETLEYQPDQKQDLALLKKLKDQGIPVVAVFLSGRPMWVNPELNASDAFVAAWLPGTEGGGVADVLFTDKAGKVQHDFAGKLSYSWPRTAAQTTVNRGDADYNPLFAYGYGLTYKDKSKVGTLPEESGVPAEARQN

Assay: High throughput cellobiose assay: fold improvement in cellobiase activity of CelA variants over a control enzyme (Tables 2A-2D, 3, 5, 6, 7)
Format: biochemical
Settings: 3.3 g/l cellobiose, 55° C. and pH 6.0

Molecule | Fold improvement over Control Variant No. 5 from Table 2A
B1 | ++ (++ = 1.1 to 6 fold improvement over control Variant No. 2)
B2 | ++ (++ = 1.1 to 6 fold improvement over control Variant No. 2)
B3 | +++ (+++ = 6 to 13 fold improvement over control Variant No. 2)
B4 | ++ (++ = 1.1 to 6 fold improvement over control Variant No. 2)
B5 | +++ (+++ = 6 to 13 fold improvement over control Variant No. 2)
B6 | ++ (++ = 1.1 to 6 fold improvement over control Variant No. 2)
B7 | ++ (++ = 1.1 to 6 fold improvement over control Variant No. 2)
B8 | ++ (++ = 1.1 to 6 fold improvement over control Variant No. 2)
B9 | ++ (++ = 1.1 to 6 fold improvement over control Variant No. 2)
B10 | ++ (++ = 1.1 to 6 fold improvement over control Variant No. 2)
B11 | +++ (+++ = 6 to 13 fold improvement over control Variant No. 2)
B12 | ++ (++ = 1.1 to 6 fold improvement over control Variant No. 2)
B13 | ++ (++ = 1.1 to 6 fold improvement over control Variant No. 2)
B14 | ++ (++ = 1.1 to 6 fold improvement over control Variant No. 2)
B15 | ++ (++ = 1.1 to 6 fold improvement over control Variant No. 2)
B16 | ++ (++ = 1.1 to 6 fold improvement over control Variant No. 2)

Molecule | Fold improvement over Control Variant No. 5 from Table 2A
B17 | +++ (+++ = 6 to 13 fold improvement over control Variant No. 2)
B18 | ++ (++ = 1.1 to 6 fold improvement over control Variant No. 2)
B19 | ++ (++ = 1.1 to 6 fold improvement over control Variant No. 2)
B20 | ++ (++ = 1.1 to 6 fold improvement over control Variant No. 2)
B21 | +++ (+++ = 6 to 13 fold improvement over control Variant No. 2)
B22 | ++ (++ = 1.1 to 6 fold improvement over control Variant No. 2)
B23 | ++ (++ = 1.1 to 6 fold improvement over control Variant No. 2)
B24 | ++ (++ = 1.1 to 6 fold improvement over control Variant No. 2)
B25 | ++ (++ = 1.1 to 6 fold improvement over control Variant No. 2)
B26 | +++ (+++ = 6 to 13 fold improvement over control Variant No. 2)
B27 | +++ (+++ = 6 to 13 fold improvement over control Variant No. 2)
B28 | +++ (+++ = 6 to 13 fold improvement over control Variant No. 2)
B29 | +++ (+++ = 6 to 13 fold improvement over control Variant No. 2)
B30 | ++ (++ = 1.1 to 6 fold improvement over control Variant No. 2)
B31 | ++ (++ = 1.1 to 6 fold improvement over control Variant No. 2)
